# T1: Gid1 (S. cerevisiae, UniProt P53076)
# T1 sequence: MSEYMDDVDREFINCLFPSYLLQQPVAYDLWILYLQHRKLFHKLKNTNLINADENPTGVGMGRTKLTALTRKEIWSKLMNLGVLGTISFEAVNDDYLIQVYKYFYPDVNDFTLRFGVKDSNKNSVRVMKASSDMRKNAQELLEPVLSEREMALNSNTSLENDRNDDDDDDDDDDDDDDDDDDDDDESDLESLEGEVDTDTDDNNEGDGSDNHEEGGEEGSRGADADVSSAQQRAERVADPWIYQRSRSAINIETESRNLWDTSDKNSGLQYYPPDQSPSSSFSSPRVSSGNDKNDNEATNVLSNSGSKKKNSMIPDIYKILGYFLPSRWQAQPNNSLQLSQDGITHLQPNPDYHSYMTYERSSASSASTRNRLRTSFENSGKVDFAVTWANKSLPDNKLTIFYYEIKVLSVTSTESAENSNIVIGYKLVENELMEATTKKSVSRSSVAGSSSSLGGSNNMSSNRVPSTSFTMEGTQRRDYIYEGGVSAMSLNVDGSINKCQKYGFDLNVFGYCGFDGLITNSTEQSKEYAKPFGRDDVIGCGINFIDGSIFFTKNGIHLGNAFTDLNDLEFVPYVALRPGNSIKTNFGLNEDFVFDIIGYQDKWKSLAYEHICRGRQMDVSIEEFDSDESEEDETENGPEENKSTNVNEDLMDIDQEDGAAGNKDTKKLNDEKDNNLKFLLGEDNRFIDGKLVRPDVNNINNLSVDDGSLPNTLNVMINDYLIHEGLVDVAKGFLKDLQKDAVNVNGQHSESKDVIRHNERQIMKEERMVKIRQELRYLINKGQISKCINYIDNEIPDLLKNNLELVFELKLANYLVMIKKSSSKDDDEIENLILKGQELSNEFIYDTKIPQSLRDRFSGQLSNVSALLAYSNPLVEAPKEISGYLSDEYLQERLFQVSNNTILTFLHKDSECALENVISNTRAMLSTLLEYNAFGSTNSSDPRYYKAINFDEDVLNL
# B1: Gid7 (natural protein)
# chain: MSHTNKIAYVLNNDTEETASPSSVGCFDKKQLTKLLIHTLKELGYDSAANQLLLESGGYQNESNHIQTFFKLIKTGQFHLINWQIVCSLPLAHSSPLRSEWLQRLLIPTPTPATTSLFDHMLLQLQYLQQLMSSVNSSTCSDAEIATLRNYVEIMILVNRQIFLEFFHPVTNSASHKGPHTALPVLYLRKILKNFIEIWDSLLVSNDQFLNEENIFNPETTLRELSTYLTNPKLTAQLNLERDHLIDAISKYIDPNELVPKGRLLHLLKQAIKYQQSQDIFNIIDPDDDASFSSPPHRINLLQDNFSHDLTVTFQEWKTIQDTTDEIWFLTFSPNGKYLASATSESSRGYFITVYDVEQDFKIYKTCVSLSQSVLYLMFSPDSRYLVACPFSEDVTIYDMNATSLPDASATDSFLLYPSTRLSPMDSFKLDTTTYPDDTESSASSSSRPANANSNQSRVWCCDAFHTAERAGWMVVGSPDREAIVHSLTTKESLFSLKGRTCIALGHDENISGRKSIDPAKVLYKPTSSNGNWQYVEDDETFPRVHDVKISYDDKYVLLMTHQGVIDVYDFSGFPSKEELSKQTVDPKNFLIPRIARLDVGKNMTCISLPLNTTHQGFHRQQISESQHLVLVSLQDNELQMWDYKENILIQKYFGQKQQHFIIRSCFAYGNKLVMSGSEDGKIYIWDRIRGNLVSVLSGHSTVMSNSTKPMGKNCNVVASNPADKEMFASGGDDGKIKIWKISRN
# B2: Gid8 with a C-terminal twin-Strep tag (natural protein)
# chain: MTISTLSNETTKSGSCSGQGKNGGKDFTYGKKCFTKEEWKEQVAKYSAMGELYANKTIHYPLKIQPNSSGGSQDEGFATIQTTPIEPTLPRLLLNYFVSMAYEDSSIRMAKELGFIRNNKDIAVFNDLYKIKERFHIKHLIKLGRINEAMEEINSIFGLEVLEETFNATGSYTGRTDRQQQQQQQQFDIDGDLHFKLLLLNLIEMIRSHHQQENITKDSNDFILNLIQYSQNKLAIKASSSVKKMQELELAMTLLLFPLSDSADSGSIKLPKSLQNLYSISLRSKIADLVNEKLLKFIHPRIQFEISNNNSKFPDLLNSDKKIITQNFTVYNNNLVNGSNGTKITHISSDQPINEKMSSNEVTAAANSVWLNQRDGNVGTGSAATTFHNLENKNYWNQTSELLSSSNGKEKGLEFNNYYSSEFPYEPRLTQIMKLWCWCENQLHHNQIGVPRVEN
# Columns and labels:
# Test in all cases: cryo-EM structure
# Gid7 (S. cerevisiae) = Gid7 (S. cerevisiae) (UniProt P25569)
# GID^SR4 = GID^SR4 (S. cerevisiae, UniProt P53076;P40208;P40547;P38263;Q12508;P40492)
# Sequence of GID^SR4 (P40547 whole entry, chain 3 of 4): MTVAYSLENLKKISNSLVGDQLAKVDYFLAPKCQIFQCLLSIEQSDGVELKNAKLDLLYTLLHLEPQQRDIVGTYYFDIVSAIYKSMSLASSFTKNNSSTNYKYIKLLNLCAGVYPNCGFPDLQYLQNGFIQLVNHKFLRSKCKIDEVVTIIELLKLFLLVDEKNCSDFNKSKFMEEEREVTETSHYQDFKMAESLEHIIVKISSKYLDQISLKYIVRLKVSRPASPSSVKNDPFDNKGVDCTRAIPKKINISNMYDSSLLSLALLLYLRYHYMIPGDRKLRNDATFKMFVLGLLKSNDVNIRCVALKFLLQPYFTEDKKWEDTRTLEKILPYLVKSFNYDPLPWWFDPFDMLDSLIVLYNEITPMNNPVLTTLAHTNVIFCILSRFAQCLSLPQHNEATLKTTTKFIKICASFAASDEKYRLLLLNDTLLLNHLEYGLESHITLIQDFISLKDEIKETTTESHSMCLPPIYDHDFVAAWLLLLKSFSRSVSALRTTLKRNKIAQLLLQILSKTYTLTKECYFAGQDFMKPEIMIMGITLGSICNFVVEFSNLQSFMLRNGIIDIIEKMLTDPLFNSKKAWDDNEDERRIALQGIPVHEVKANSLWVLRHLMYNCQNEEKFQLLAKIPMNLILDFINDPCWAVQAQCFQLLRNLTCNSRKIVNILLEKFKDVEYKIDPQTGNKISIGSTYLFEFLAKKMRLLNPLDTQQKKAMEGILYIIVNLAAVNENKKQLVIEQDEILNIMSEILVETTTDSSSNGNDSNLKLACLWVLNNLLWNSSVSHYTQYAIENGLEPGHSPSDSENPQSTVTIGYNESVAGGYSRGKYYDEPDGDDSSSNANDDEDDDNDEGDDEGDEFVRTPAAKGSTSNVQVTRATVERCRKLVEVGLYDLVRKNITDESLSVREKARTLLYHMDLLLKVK
# Sequence of GID^SR4 (P38263 117-362, chain 4 of 4): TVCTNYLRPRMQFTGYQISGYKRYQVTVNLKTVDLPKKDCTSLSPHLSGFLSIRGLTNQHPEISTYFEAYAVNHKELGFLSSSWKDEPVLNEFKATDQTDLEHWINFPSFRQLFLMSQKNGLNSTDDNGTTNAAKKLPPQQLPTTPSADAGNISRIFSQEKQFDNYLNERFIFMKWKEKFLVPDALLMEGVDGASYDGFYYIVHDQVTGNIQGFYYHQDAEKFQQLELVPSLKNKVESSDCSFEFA
# Sequence of GID^SR4 (Q12508 whole entry, chain 5 of 4): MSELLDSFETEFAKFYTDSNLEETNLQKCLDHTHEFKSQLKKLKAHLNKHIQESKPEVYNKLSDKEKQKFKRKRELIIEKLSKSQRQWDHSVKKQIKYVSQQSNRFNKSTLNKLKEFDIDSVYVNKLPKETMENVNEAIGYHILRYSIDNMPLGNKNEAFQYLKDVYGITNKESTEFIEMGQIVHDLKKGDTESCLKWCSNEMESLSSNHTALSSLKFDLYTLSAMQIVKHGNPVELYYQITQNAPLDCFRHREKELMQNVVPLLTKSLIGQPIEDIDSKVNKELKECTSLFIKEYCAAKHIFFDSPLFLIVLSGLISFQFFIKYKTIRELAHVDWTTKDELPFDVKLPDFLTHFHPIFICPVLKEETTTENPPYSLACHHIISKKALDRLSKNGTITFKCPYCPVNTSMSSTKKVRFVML
# Sequence of GID^SR4 (P40492 whole entry, chain 6 of 4): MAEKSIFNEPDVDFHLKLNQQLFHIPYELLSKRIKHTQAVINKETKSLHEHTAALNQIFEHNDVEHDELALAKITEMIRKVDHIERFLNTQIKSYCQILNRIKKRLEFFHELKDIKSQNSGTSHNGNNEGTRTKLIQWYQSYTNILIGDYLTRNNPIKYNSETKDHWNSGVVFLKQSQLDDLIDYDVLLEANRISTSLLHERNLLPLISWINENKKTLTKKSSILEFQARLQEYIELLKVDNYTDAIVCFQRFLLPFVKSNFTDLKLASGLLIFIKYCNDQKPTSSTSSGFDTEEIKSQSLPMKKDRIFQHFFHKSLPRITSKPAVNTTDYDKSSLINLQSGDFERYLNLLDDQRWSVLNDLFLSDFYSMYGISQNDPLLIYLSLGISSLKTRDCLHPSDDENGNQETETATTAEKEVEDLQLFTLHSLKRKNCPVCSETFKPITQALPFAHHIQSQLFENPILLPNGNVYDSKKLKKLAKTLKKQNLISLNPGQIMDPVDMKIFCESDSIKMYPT
# Gid1 = molecular target: T1, Gid1
# Gid7 = molecular target: B1
Binder,stoichiometry N (Gid7 (S. cerevisiae)),binding result (GID^SR4),binding result (Gid1),binding result (Gid7)
B1,2,binds,binds,
B2,,,,binds
